Source: the Human Domainome abundance scans (Beltran et al. 2025)
± gives the uncertainty stated by the source.

B1: SWI/SNF-related matrix-associated actin-dependent regulator of chromatin subfamily B member 1, residues 181 to 248; numbered along this chain, Q12824 (parent)
chain: SQPEVLVPIRLDMEIDGQKLRDAFTWNMNEKLMTPEMFSEILCDDLDLNPLTFVPAIASAIRQQIESY

Variants of: B1
Assay: abundance fitness (aPCA) (normalised: wild type 0, dead -1); higher = more abundant; growth selection in yeast, the domain comes from the species named
Settings: Homo sapiens

Variant | abundance fitness
SQPEVLVPNRLDMEIDGQKLRDAFTWNMNEKLMTPEMFSEILCDDLDLNPLTFVPAIASAIRQQIESY [I9N] | -0.742 ± 0.25
SQPEVLVYIRLDMEIDGQKLRDAFTWNMNEKLMTPEMFSEILCDDLDLNPLTFVPAIASAIRQQIESY [P8Y] | -0.55 ± 0.12
SQPEVLVEIRLDMEIDGQKLRDAFTWNMNEKLMTPEMFSEILCDDLDLNPLTFVPAIASAIRQQIESY [P8E] | -0.197 ± 0.089
SQPEVLVMIRLDMEIDGQKLRDAFTWNMNEKLMTPEMFSEILCDDLDLNPLTFVPAIASAIRQQIESY [P8M] | -0.355 ± 0.068
SQPEVLVQIRLDMEIDGQKLRDAFTWNMNEKLMTPEMFSEILCDDLDLNPLTFVPAIASAIRQQIESY [P8Q] | -0.072 ± 0.043
SQPEVLVAIRLDMEIDGQKLRDAFTWNMNEKLMTPEMFSEILCDDLDLNPLTFVPAIASAIRQQIESY [P8A] | -0.676 ± 0.074
SQPEVLVTIRLDMEIDGQKLRDAFTWNMNEKLMTPEMFSEILCDDLDLNPLTFVPAIASAIRQQIESY [P8T] | -0.177 ± 0.048
SQPEVLVSIRLDMEIDGQKLRDAFTWNMNEKLMTPEMFSEILCDDLDLNPLTFVPAIASAIRQQIESY [P8S] | -0.405 ± 0.042
SQPEVLVRIRLDMEIDGQKLRDAFTWNMNEKLMTPEMFSEILCDDLDLNPLTFVPAIASAIRQQIESY [P8R] | -0.352 ± 0.037
SQPEVLVGIRLDMEIDGQKLRDAFTWNMNEKLMTPEMFSEILCDDLDLNPLTFVPAIASAIRQQIESY [P8G] | -0.875 ± 0.13
SQPEVLVNIRLDMEIDGQKLRDAFTWNMNEKLMTPEMFSEILCDDLDLNPLTFVPAIASAIRQQIESY [P8N] | -0.286 ± 0.14
SQPEVLVCIRLDMEIDGQKLRDAFTWNMNEKLMTPEMFSEILCDDLDLNPLTFVPAIASAIRQQIESY [P8C] | -0.736 ± 0.13
SQPEVLVIIRLDMEIDGQKLRDAFTWNMNEKLMTPEMFSEILCDDLDLNPLTFVPAIASAIRQQIESY [P8I] | -0.523 ± 0.1
SQPEVLVLIRLDMEIDGQKLRDAFTWNMNEKLMTPEMFSEILCDDLDLNPLTFVPAIASAIRQQIESY [P8L] | -0.512 ± 0.043
SQPEVLVFIRLDMEIDGQKLRDAFTWNMNEKLMTPEMFSEILCDDLDLNPLTFVPAIASAIRQQIESY [P8F] | -0.506 ± 0.089
SQPEVLVVIRLDMEIDGQKLRDAFTWNMNEKLMTPEMFSEILCDDLDLNPLTFVPAIASAIRQQIESY [P8V] | -0.315 ± 0.074
SQPEVLVHIRLDMEIDGQKLRDAFTWNMNEKLMTPEMFSEILCDDLDLNPLTFVPAIASAIRQQIESY [P8H] | -0.641 ± 0.14
SQPEVLVPIRPDMEIDGQKLRDAFTWNMNEKLMTPEMFSEILCDDLDLNPLTFVPAIASAIRQQIESY [L11P] | -0.578 ± 0.42
SQPEVLVPIRTDMEIDGQKLRDAFTWNMNEKLMTPEMFSEILCDDLDLNPLTFVPAIASAIRQQIESY [L11T] | -0.057 ± 0.13
SQPEVLVPIRFDMEIDGQKLRDAFTWNMNEKLMTPEMFSEILCDDLDLNPLTFVPAIASAIRQQIESY [L11F] | -0.215 ± 0.18

Variant | abundance fitness
SQPEVLVPIRVDMEIDGQKLRDAFTWNMNEKLMTPEMFSEILCDDLDLNPLTFVPAIASAIRQQIESY [L11V] | -0.624 ± 0.24
SQPEVLVPIRSDMEIDGQKLRDAFTWNMNEKLMTPEMFSEILCDDLDLNPLTFVPAIASAIRQQIESY [L11S] | -0.751 ± 0.37
SQPEVLVPIRADMEIDGQKLRDAFTWNMNEKLMTPEMFSEILCDDLDLNPLTFVPAIASAIRQQIESY [L11A] | -0.792 ± 0.38
SQPEVLVPIRCDMEIDGQKLRDAFTWNMNEKLMTPEMFSEILCDDLDLNPLTFVPAIASAIRQQIESY [L11C] | -0.848 ± 0.33
SQPEVLMPIRLDMEIDGQKLRDAFTWNMNEKLMTPEMFSEILCDDLDLNPLTFVPAIASAIRQQIESY [V7M] | -0.646 ± 0.14
SQPEVLWPIRLDMEIDGQKLRDAFTWNMNEKLMTPEMFSEILCDDLDLNPLTFVPAIASAIRQQIESY [V7W] | -1 ± 0.18
SQPEVLEPIRLDMEIDGQKLRDAFTWNMNEKLMTPEMFSEILCDDLDLNPLTFVPAIASAIRQQIESY [V7E] | -0.868 ± 0.18
SQPEVLKPIRLDMEIDGQKLRDAFTWNMNEKLMTPEMFSEILCDDLDLNPLTFVPAIASAIRQQIESY [V7K] | -0.906 ± 0.17
SQPEVLLPIRLDMEIDGQKLRDAFTWNMNEKLMTPEMFSEILCDDLDLNPLTFVPAIASAIRQQIESY [V7L] | -0.322 ± 0.055
SQPEVLFPIRLDMEIDGQKLRDAFTWNMNEKLMTPEMFSEILCDDLDLNPLTFVPAIASAIRQQIESY [V7F] | -0.547 ± 0.17
SQPEVLGPIRLDMEIDGQKLRDAFTWNMNEKLMTPEMFSEILCDDLDLNPLTFVPAIASAIRQQIESY [V7G] | -0.873 ± 0.1
SQPEVLDPIRLDMEIDGQKLRDAFTWNMNEKLMTPEMFSEILCDDLDLNPLTFVPAIASAIRQQIESY [V7D] | -0.749 ± 0.23
SQPEVLCPIRLDMEIDGQKLRDAFTWNMNEKLMTPEMFSEILCDDLDLNPLTFVPAIASAIRQQIESY [V7C] | -0.293 ± 0.079
SQPEVLSPIRLDMEIDGQKLRDAFTWNMNEKLMTPEMFSEILCDDLDLNPLTFVPAIASAIRQQIESY [V7S] | -0.866 ± 0.11
SQPEVLIPIRLDMEIDGQKLRDAFTWNMNEKLMTPEMFSEILCDDLDLNPLTFVPAIASAIRQQIESY [V7I] | -0.049 ± 0.086
SQPEVLQPIRLDMEIDGQKLRDAFTWNMNEKLMTPEMFSEILCDDLDLNPLTFVPAIASAIRQQIESY [V7Q] | -0.937 ± 0.19
SQPEVLRPIRLDMEIDGQKLRDAFTWNMNEKLMTPEMFSEILCDDLDLNPLTFVPAIASAIRQQIESY [V7R] | -0.998 ± 0.12
SQPEVLAPIRLDMEIDGQKLRDAFTWNMNEKLMTPEMFSEILCDDLDLNPLTFVPAIASAIRQQIESY [V7A] | -0.65 ± 0.066
SQPEVLPPIRLDMEIDGQKLRDAFTWNMNEKLMTPEMFSEILCDDLDLNPLTFVPAIASAIRQQIESY [V7P] | -0.753 ± 0.18
SQPEVLTPIRLDMEIDGQKLRDAFTWNMNEKLMTPEMFSEILCDDLDLNPLTFVPAIASAIRQQIESY [V7T] | -0.77 ± 0.19
